Results from paper PMC4919469.

Experiments:
[1] = biological target: full-length Cdc42Q61L (human) (UniProt P60953); test: scintillation proximity assay; competition; free effector domain titrated into 30 nM Cdc42·[3H]GTP and 30 nM GST-ACK (in Fig. 7B GST-ACK or GST-WASP GBD) immobilised on a fluoromicrosphere; Kd from competition binding isotherms
Cdc42Δ7Q61L (human) = Cdc42Δ7Q61L (human) (UniProt P60953); test: as above
Chain of Cdc42Δ7Q61L (human) (P60953 1-184 Q61L): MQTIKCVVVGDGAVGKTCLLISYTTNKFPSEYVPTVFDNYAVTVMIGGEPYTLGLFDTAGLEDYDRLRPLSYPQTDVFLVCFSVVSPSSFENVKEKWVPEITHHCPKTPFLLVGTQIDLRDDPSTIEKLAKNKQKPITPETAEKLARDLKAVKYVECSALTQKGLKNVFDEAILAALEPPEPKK

Chain of full-length Cdc42Q61L (human) (P60953 whole entry Q61L, the tested form may be a part): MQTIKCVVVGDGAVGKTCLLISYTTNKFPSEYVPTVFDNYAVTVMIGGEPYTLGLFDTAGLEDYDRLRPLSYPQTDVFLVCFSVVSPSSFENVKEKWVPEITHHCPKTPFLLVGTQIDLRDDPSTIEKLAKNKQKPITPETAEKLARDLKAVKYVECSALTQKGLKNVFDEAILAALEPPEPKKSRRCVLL

free ACK GBD (domain or fragment)
Kd [1]: 11 nM
Kd (Cdc42Δ7Q61L (human)): 32 nM
